Experimental data: the supplement of paper PMC9233669
This sample holds only a part of the variants without activity.

What was measured:
biotinyl-Trp-oxazolone = assay: self-aminoacylation, catalytic enhancement (BWO) (fold over background); higher = more active; k-Seq, kA / k0A0; sequences stand for … in GGGAAUGGAUCCACAUCUACGAAUUC…UUCACUGCAGACUUGACGAAGCUG
Method in brief: (§1)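 Working in 50 μL HEPES/NaCl/KCl/MgCl2/CaCl2 buffer with 5% acetonitrile at pH 6.9–7.0, mutagenized RNA pools (0.43 μM; 21-nt variable region) were reacted with 2–1250 μM of each biotinyl-aminoacyl-oxazolone for 90 minutes at room temperature. Streptavidin capture followed, with quantification by triplicate qPCR and Illumina sequencing. Catalytic enhancement is reported as median kA over the uncatalyzed rate, the low-activity peak of a bimodal Gaussian fit to the data.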

biotinyl-Met-oxazolone = assay: self-aminoacylation, catalytic enhancement (BMO) (fold over background); higher = more active; k-Seq, kA / k0A0; sequences stand for … in GGGAAUGGAUCCACAUCUACGAAUUC…UUCACUGCAGACUUGACGAAGCUG
Method in brief: as §1

biotinyl-Phe-oxazolone = assay: self-aminoacylation, catalytic enhancement (BFO) (fold over background); higher = more active; k-Seq, kA / k0A0; sequences stand for … in GGGAAUGGAUCCACAUCUACGAAUUC…UUCACUGCAGACUUGACGAAGCUG
Method in brief: as §1

biotinyl-Leu-oxazolone = assay: self-aminoacylation, catalytic enhancement (BLO) (fold over background); higher = more active; k-Seq, kA / k0A0; sequences stand for … in GGGAAUGGAUCCACAUCUACGAAUUC…UUCACUGCAGACUUGACGAAGCUG
Method in brief: as §1

biotinyl-Val-oxazolone = assay: self-aminoacylation, catalytic enhancement (BVO) (fold over background); higher = more active; k-Seq, kA / k0A0; sequences stand for … in GGGAAUGGAUCCACAUCUACGAAUUC…UUCACUGCAGACUUGACGAAGCUG
Method in brief: as §1

biotinyl-Ile-oxazolone = assay: self-aminoacylation, catalytic enhancement (BIO) (fold over background); higher = more active; k-Seq, kA / k0A0; sequences stand for … in GGGAAUGGAUCCACAUCUACGAAUUC…UUCACUGCAGACUUGACGAAGCUG
Method in brief: as §1

Sequence | self-aminoacylation (biotinyl-Trp-oxazolone) | self-aminoacylation (biotinyl-Met-oxazolone) | self-aminoacylation (biotinyl-Phe-oxazolone) | self-aminoacylation (biotinyl-Leu-oxazolone) | self-aminoacylation (biotinyl-Val-oxazolone) | self-aminoacylation (biotinyl-Ile-oxazolone)
AAGUUUGCUACUAGUCGCAAC [Fam3.1 aminoacylation ribozyme variant] | 0.917 | 0.845 | 0.697 | 0.763 | 0.874 | 0.737
AAGUUUGCUACUAGUCGCCAG [Fam3.1 aminoacylation ribozyme variant] | 1.91 | 1.26 | 0.986 | 0.749 | 1.1 | 1.27
AAGUUUGCUACUAGUCUCAAG [Fam3.1 aminoacylation ribozyme variant] | 0.988 | 0.914 | 1.11 | 0.77 | 0.818 | 0.827
AAGUUUGCUAGGAGUCGCAAG [Fam3.1 aminoacylation ribozyme variant] | 1.02 | 0.673 | 0.649 | 0.459 | 0.745 | 0.788
AAGUUUGCUAGUACUCGCAAG [Fam3.1 aminoacylation ribozyme variant] | 0.574 | 0.907 | 0.836 | 0.773 | 0.878 | 0.894
AAGUUUGCUAGUAGCCGCAAG [Fam3.1 aminoacylation ribozyme variant] | 0.972 | 0.787 | 1.34 | 1.09 | 0.797 | 1.16
AAGUUUGCUAGUAGUCGCAUG [Fam3.1 aminoacylation ribozyme variant] | 1.4 | 0.737 | 0.822 | 0.808 | 0.873 | 0.903
AAGUUUGCUAGUAGUCGCGAG [Fam3.1 aminoacylation ribozyme variant] | 2.01 | 1.08 | 3.65 | 1.25 | 1.54 | 1.27
AAGUUUGCUAUCAGUCGCAAG [Fam3.1 aminoacylation ribozyme variant] | 0.615 | 0.865 | 1.37 | 0.733 | 0.931 | 0.794
AAGUUUGCUAUUAGACGCAAG [Fam3.1 aminoacylation ribozyme variant] | 0.55 | 0.712 | 1.08 | 0.691 | 0.894 | 0.577
AAGUUUGCUAUUAGUCGAAAG [Fam3.1 aminoacylation ribozyme variant] | 0.825 | 1.18 | 1.06 | 0.914 | 0.834 | 1.07
AAGUUUGCUAUUAGUCGUAAG [Fam3.1 aminoacylation ribozyme variant] | 1.13 | 0.884 | 0.987 | 0.851 | 0.923 | 0.868
AAGUUUGCUCAUAGGCGCAAG [Fam3.1 aminoacylation ribozyme variant] | 0.876 | 0.839 | 0.996 | 0.577 | 0.852 | 0.735
AAGUUUGCUCAUAGUGGCAAG [Fam3.1 aminoacylation ribozyme variant] | 0.785 | 0.618 | 1.2 | 0.526 | 0.774 | 0.71
AAGUUUGCUGAGAGUCGCAAG [Fam3.1 aminoacylation ribozyme variant] | 1.18 | 1.01 | 1.91 | 1.03 | 0.873 | 0.969
AAGUUUGCUGAUAAUCGCAAG [Fam3.1 aminoacylation ribozyme variant] | 0.682 | 0.716 | 1.05 | 0.586 | 0.754 | 0.707
AAGUUUGCUGAUAGUCGCAAA [Fam3.1 aminoacylation ribozyme variant] | 1.19 | 1.38 | 3.33 | 1.6 | 1.55 | 1.71
AAGUUUGCUGAUAGUCGCGAG [Fam3.1 aminoacylation ribozyme variant] | 1.81 | 1.72 | 6.95 | 2.43 | 1.61 | 1.75
AAGUUUGCUGAUAGUCGCUAG [Fam3.1 aminoacylation ribozyme variant] | 1.11 | 1.31 | 1.86 | 1.08 | 1.26 | 1.14
AAGUUUGCUGCUAGUCGCAAG [Fam3.1 aminoacylation ribozyme variant] | 1.19 | 1.57 | 2.64 | 1.3 | 1.31 | 1.21
AAGUUUGCUGUUAGUCGCAAG [Fam3.1 aminoacylation ribozyme variant] | 1.37 | 0.895 | 0.937 | 0.912 | 0.855 | 0.911
AAGUUUGCUUAUACUCGCAAG [Fam3.1 aminoacylation ribozyme variant] | 0.554 | 0.863 | 0.761 | 0.66 | 0.814 | 0.779
AAGUUUGCUUAUAGACGCAAG [Fam3.1 aminoacylation ribozyme variant] | 0.629 | 0.559 | 0.84 | 0.495 | 0.585 | 0.591
AAGUUUGCUUAUAGUAGCAAG [Fam3.1 aminoacylation ribozyme variant] | 0.878 | 1.06 | 1.56 | 1.08 | 1.12 | 1.04
AAGUUUGCUUAUAGUCGCAAG [Fam3.1 aminoacylation ribozyme variant] | 0.847 | 0.801 | 1.13 | 0.768 | 0.862 | 0.849
